Results from the supplement of paper PMC10724198.
± gives the standard deviation of the averaged measurements.

Test system: Saccharomyces cerevisiae
Assay: protein stability index of tFT-peptide fusion (C-terminal peptide) (PSI (0-1 scale)); higher = more stable (slower turnover)
Conditions: temperature: 30 C
Description: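 MPS profiling in S. cerevisiae of the yeast C-terminome library: the last 12 aa of each annotated ORF are fused to the C-terminus of a sfGFP-mCherry timer, after a GGGS linker. Cells are FACS-sorted into 8 mCherry/sfGFP bins and deep-sequenced. PSI runs from 0 (unstable) to 1 (stable); wild type and das1Δ backgrounds, two technical replicates each.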

[1] = genetic background: das1 deletion

Sequence | protein stability index [1] | protein stability index (genetic background: wild type)
GLQNRLARNNEK [MRP4 C-terminal 12 aa] | 0.734 ± 0.018 | 0.6607 ± 0.0019
GLQVMNEMKQRW [ECM25 C-terminal 12 aa] | 0.7091 ± 0.0069 | 0.724 ± 0.053
GMLGLSALLGGE [SEC11 C-terminal 12 aa] | 0.687 ± 0.019 | 0.678 ± 0.016
GNLPQPVFQPLL [VHR1 C-terminal 12 aa] | 0.701 ± 0.0019 | 0.6795 ± 0.0033
GQLTTDEETCIE [RTR2 C-terminal 12 aa] | 0.6793 ± 0.0044 | 0.726 ± 0.034
GRDCISKRAILE [IMP2 C-terminal 12 aa] | 0.7067 ± 0.0024 | 0.6702 ± 0.004
GRGLLGCRIQEL [NAS2 C-terminal 12 aa] | 0.703 ± 0.012 | 0.681 ± 0.032
GSESILTAKQPI [OCA2 C-terminal 12 aa] | 0.706 ± 0.0075 | 0.685 ± 0.009
GSNNRGYTLIDL [ENT1 C-terminal 12 aa] | 0.698 ± 0.015 | 0.736 ± 0.029
GTDLLKENRNCS [YML096W C-terminal 12 aa] | 0.669 ± 0.0067 | 0.6895 ± 0.0012
GTVDEIIKFLSE [YTA7 C-terminal 12 aa] | 0.725 ± 0.023 | 0.736 ± 0.066
GVLLILASALFT [ZRT3 C-terminal 12 aa] | 0.3294 ± 0.0016 | 0.341 ± 0.0088
GVSTGYEKIRYI [FUI1 C-terminal 12 aa] | 0.734 ± 0.012 | 0.31 ± 0.025
GVVKFNSEHYRD [SAP185 C-terminal 12 aa] | 0.721 ± 0.045 | 0.668 ± 0.034
GWLQDSNFTKYL [FUN19 C-terminal 12 aa] | 0.6978 ± 0.0056 | 0.808 ± 0.13
GWQTGALIIKKH [SAF1 C-terminal 12 aa] | 0.729 ± 0.0083 | 0.763 ± 0.11
GYDTVASLDFWG [ROM2 C-terminal 12 aa] | 0.742 ± 0.018 | 0.761 ± 0.047
GYEDGTIKLNKI [ASA1 C-terminal 12 aa] | 0.697 ± 0.033 | 0.682 ± 0.018
HAEFHARNLGLI [YJL068C C-terminal 12 aa] | 0.7036 ± 0.0021 | 0.686 ± 0.023
HGGNISSSTYQA [GND2 C-terminal 12 aa] | 0.698 ± 0.02 | 0.722 ± 0.054
HHVESVCIMKRI [TRM2 C-terminal 12 aa] | 0.668 ± 0.014 | 0.675 ± 0.034

Sequence | protein stability index [1] | protein stability index (genetic background: wild type)
HPCTSLTSVIVV [YGL072C C-terminal 12 aa] | 0.36 ± 0.045 | 0.433 ± 0.051
HSRNPKRSSTTL [TRK1 C-terminal 12 aa] | 0.737 ± 0.034 | 0.767 ± 0.069
HTPSLKTWSTIK [FKS1 C-terminal 12 aa] | 0.7108 ± 0.0063 | 0.711 ± 0.019
HVDKRTKIDQEA [ISW2 C-terminal 12 aa] | 0.702 ± 0.056 | 0.681 ± 0.016
HWQYMKDYLNLY [SLI1 C-terminal 12 aa] | 0.715 ± 0.033 | 0.684 ± 0.06
IAEGKSLGIIGA [HXK1 C-terminal 12 aa] | 0.6923 ± 0.0061 | 0.686 ± 0.034
IAPSGKYYFPFG [YMR031W-A C-terminal 12 aa] | 0.718 ± 0.011 | 0.684 ± 0.011
IARSRRAFLSKL [MRP7 C-terminal 12 aa] | 0.843 ± 0.018 | 0.846 ± 0.089
IDASKDQDTMME [NUG1 C-terminal 12 aa] | 0.693 ± 0.019 | 0.736 ± 0.068
IDEFYECLQDQQ [DCN1 C-terminal 12 aa] | 0.704 ± 0.0073 | 0.721 ± 0.013
IDKFLNSAVLSA [YMR307C-A C-terminal 12 aa] | 0.5813 ± 0.0033 | 0.637 ± 0.017
IDKLRNSFYKTI [SMU2 C-terminal 12 aa] | 0.687 ± 0.028 | 0.515 ± 0.028
IDSNNAQSKIFS [MYO1 C-terminal 12 aa] | 0.6956 ± 0.00034 | 0.6648 ± 0.0055
IDVELEEESFTW [FRE1 C-terminal 12 aa] | 0.698 ± 0.024 | 0.743 ± 0.022
IEFSMRSLCQGK [CFT1 C-terminal 12 aa] | 0.7166 ± 0.0059 | 0.685 ± 0.038
IEHYKSEQEKSL [MUP1 C-terminal 12 aa] | 0.6971 ± 0.0015 | 0.67 ± 0.035
IEQETGSEEKQE [SBP1 C-terminal 12 aa] | 0.6781 ± 0.0035 | 0.7729 ± 0.0054
IFCTLFIHTQIL [PLC1 C-terminal 12 aa] | 0.138 ± 0.011 | 0.143 ± 0.023
IFHQLQKKINRS [IWR1 C-terminal 12 aa] | 0.703 ± 0.0083 | 0.6656 ± 0.0027
IFIFSWLGYEDS [ATG10 C-terminal 12 aa] | 0.661 ± 0.043 | 0.664 ± 0.019
IGEWTISYTSLI [IPA1 C-terminal 12 aa] | 0.66 ± 0.015 | 0.669 ± 0.041

Sequence | protein stability index [1] | protein stability index (genetic background: wild type)
IGFKRKRKHAKK [NOP4 C-terminal 12 aa] | 0.703 ± 0.051 | 0.7117 ± 0.0028
IGFNKLGQMVYI [MRPS35 C-terminal 12 aa] | 0.669 ± 0.018 | 0.666 ± 0.029
IGGNCATRLFKL [SLM6 C-terminal 12 aa] | 0.7481 ± 0.0008 | 0.737 ± 0.024
IGRRKLVGYKHH [ATP20 C-terminal 12 aa] | 0.702 ± 0.02 | 0.666 ± 0.015
IGSIKEDYLGAI [RPB7 C-terminal 12 aa] | 0.692 ± 0.021 | 0.6737 ± 0.0027
IHYFKSNLSSPS [RAM1 C-terminal 12 aa] | 0.688 ± 0.022 | 0.724 ± 0.028
IIDLNLHSFTKQ [POP6 C-terminal 12 aa] | 0.722 ± 0.022 | 0.73 ± 0.021
IKLADAIYKGLE [FOL1 C-terminal 12 aa] | 0.702 ± 0.013 | 0.6648 ± 0.0011
IKNTGDLLKLYK [ALK1 C-terminal 12 aa] | 0.685 ± 0.021 | 0.647 ± 0.0085
ILELVNEDYQSI [MRP17 C-terminal 12 aa] | 0.738 ± 0.048 | 0.71 ± 0.039
ILEYQKRRSFIK [IRC3 C-terminal 12 aa] | 0.7238 ± 0.0049 | 0.652 ± 0.021
ILKPYYIWNNRN [ARR3 C-terminal 12 aa] | 0.7161 ± 0.0069 | 0.276 ± 0.0074
ILRLRLRKATFD [PRM1 C-terminal 12 aa] | 0.706 ± 0.023 | 0.708 ± 0.044
ILRQARCDRPHY [YEL068C C-terminal 12 aa] | 0.691 ± 0.02 | 0.727 ± 0.071
ILVLRHFDEIFI [YOR032W-A C-terminal 12 aa] | 0.63 ± 0.0065 | 0.655 ± 0.044
IMICFLERRKGN [FYV1 C-terminal 12 aa] | 0.652 ± 0.018 | 0.638 ± 0.075
IMTSEIVTNALR [YEL030C-A C-terminal 12 aa] | 0.70774 ± 0.00013 | 0.705 ± 0.022
INDKNTEYTLKE [MRX9 C-terminal 12 aa] | 0.703 ± 0.019 | 0.732 ± 0.017
INEFIEQSCKGE [YMR187C C-terminal 12 aa] | 0.687 ± 0.024 | 0.7 ± 0.044
INQEAYQAFLRR [GUF1 C-terminal 12 aa] | 0.7022 ± 0.0031 | 0.7039 ± 0.0062
IPPLIWLRKKRC [PUL3 C-terminal 12 aa] | 0.69553 ± 0.00032 | 0.664 ± 0.0097

Sequence | protein stability index [1] | protein stability index (genetic background: wild type)
IQEISAAVKKYT [SAM4 C-terminal 12 aa] | 0.704 ± 0.014 | 0.728 ± 0.038
IQTLRIKQDRYK [MAK10 C-terminal 12 aa] | 0.711 ± 0.0083 | 0.665 ± 0.029
ISEIEQLLSKLK [ATP4 C-terminal 12 aa] | 0.698 ± 0.014 | 0.684 ± 0.045
ISNDMQVPPQIS [CKS1 C-terminal 12 aa] | 0.722 ± 0.0098 | 0.688 ± 0.011
ISPSKSITMVAE [YDR526C C-terminal 12 aa] | 0.689 ± 0.011 | 0.6363 ± 0.0024
ITNEVNIYSPFF [YOR105W C-terminal 12 aa] | 0.73841 ± 0.00012 | 0.7762 ± 0.0059
IVFVPSSSYSVN [YJR157W C-terminal 12 aa] | 0.711 ± 0.014 | 0.671 ± 0.021
IVILIFDRLLSN [YGL081W C-terminal 12 aa] | 0.394 ± 0.021 | 0.425 ± 0.03
IVIQVNNPLTRA [DOG1 C-terminal 12 aa] | 0.66 ± 0.011 | 0.7098 ± 0.0059
IVIQVNNPLTRD [DOG2 C-terminal 12 aa] | 0.692 ± 0.099 | 0.643 ± 0.0052
IVQLGMSHGDIS [SMF1 C-terminal 12 aa] | 0.711 ± 0.028 | 0.699 ± 0.023
IYAALPKSKIKL [YMR304C-A C-terminal 12 aa] | 0.698 ± 0.012 | 0.737 ± 0.013
IYEGFLDHANSF [TFB6 C-terminal 12 aa] | 0.735 ± 0.011 | 0.745 ± 0.012
KAEYLKNCPITQ [RPC40 C-terminal 12 aa] | 0.712 ± 0.012 | 0.719 ± 0.028
KAIRRCQAIGLM [RSM18 C-terminal 12 aa] | 0.683 ± 0.014 | 0.672 ± 0.0076
KALKWEEQELNM [CCM1 C-terminal 12 aa] | 0.711 ± 0.015 | 0.729 ± 0.057
KAPKILYKRKGY [HPA2 C-terminal 12 aa] | 0.685 ± 0.024 | 0.675 ± 0.036
KATQAIIGYTFK [VMA13 C-terminal 12 aa] | 0.70395 ± 0.00035 | 0.71 ± 0.023
KCIRGGVFLWII [YGL014C-A C-terminal 12 aa] | 0.605 ± 0.019 | 0.309 ± 0.0041
